Assay results reported in article PMC9091212.

Biological target: TGFβRII (UniProt P37173)
Test: anti-FLAG IP, TGFβRII western blot
Details: reference: wild-type TGFβRI-FLAG; sites Y182

## TGFβRI (from UniProt P36897) Y182F
  binding against the reference: weaker
